T1: FcγRIIa R type extracellular domain, His tag (human, UniProt P12318 34-217)
T1 construct: extracellular domain; also called FcgRIIaR
T1 sequence (looked up): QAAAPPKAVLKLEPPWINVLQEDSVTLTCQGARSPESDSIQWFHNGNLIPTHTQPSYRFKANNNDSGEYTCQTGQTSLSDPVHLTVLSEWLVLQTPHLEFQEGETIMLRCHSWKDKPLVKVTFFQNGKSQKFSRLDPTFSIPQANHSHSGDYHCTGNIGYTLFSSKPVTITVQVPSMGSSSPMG

T2: FcγRIIb extracellular domain, His tag (human, UniProt P31994 43-217)
T2 construct: extracellular domain; also called FcgRIIb
T2 sequence (looked up): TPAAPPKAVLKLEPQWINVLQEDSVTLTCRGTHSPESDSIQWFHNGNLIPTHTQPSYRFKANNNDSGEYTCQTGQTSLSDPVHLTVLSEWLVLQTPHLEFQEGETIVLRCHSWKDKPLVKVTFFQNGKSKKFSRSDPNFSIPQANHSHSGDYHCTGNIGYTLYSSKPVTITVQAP

T3: FcγRIIa H type extracellular domain, His tag (human, UniProt P12318 34-217)
T3 construct: extracellular domain; also called FcgRIIaH
T3 sequence (looked up): T1 sequence (looked up) with R134H

B1: IL6R-P659/IL6R-L (antibody, human IgG1, kappa)
heavy: QVQLQESGPGLVKPSETLSLTCAVSGHSISHDHAWSWVRQPPGEGLEWIGFISYSGITNYNPSLQGRVTISRDNSKNTLYLQMNSLRAEDTAVYYCARSLARTTAMDYWGEGTLVTVSSASTKGPSVFPLAPSSKSTSGGTAALGCLVKDYFPEPVTVSWNSGALTSGVHTFPAVLQSSGLYSLSSVVTVPSSSLGTQTYICNVNHKPSNTKVDKKVEPKSCDKTHTCPPCPAPELLGQDSVMLFPPKPKDTLMISRTPEVTCVVVDVSHEDPEVKFNWYVDGVEVHNAKTKPREEQENSTYRVVSVLTVLHQDWLNGKEYKCKVSNKALPAPIEKTISKAKGQPREPQVYTLPPSRDELTKNQVSLTCLVKGFYPSDIAVEWESNGQPENNYKTTPPVLDSDGSFFLYSKLTVDKSRWQQGNVFSCSVMHEALHNHYTQKSLSLSP
light: not shown
B2: IL6R-P726/IL6R-L (antibody, human IgG1, kappa)
heavy: B1 heavy with S326H, A332H
light: not shown
B3: IL6R-P733/IL6R-L (antibody, human IgG1, kappa)
heavy: B1 heavy with L237F, H270P, S326H
light: not shown
B4: IL6R-P692/IL6R-L (antibody, human IgG1, kappa)
heavy: B1 heavy with L237F, A332H
light: not shown
B5: IL6R-P691/IL6R-L (antibody, human IgG1, kappa)
heavy: B1 heavy with L237F
light: not shown
B6: IL6R-P660/IL6R-L (antibody, human IgG1, kappa)
heavy: B1 heavy with Q239G, M243F, E298Y, S300A, S326N
light: not shown
B7: IL6R-P661/IL6R-L (antibody, human IgG1, kappa)
heavy: B1 heavy with Q239G, M243F, E298Y, S300A, A332H
light: not shown
B8: IL6R-P729/IL6R-L (antibody, human IgG1, kappa)
heavy: B1 heavy with L237F, H270P
light: not shown

Substitutions are numbered along the chain they refer to.

T5 sequence (P08637 17-208 F176V): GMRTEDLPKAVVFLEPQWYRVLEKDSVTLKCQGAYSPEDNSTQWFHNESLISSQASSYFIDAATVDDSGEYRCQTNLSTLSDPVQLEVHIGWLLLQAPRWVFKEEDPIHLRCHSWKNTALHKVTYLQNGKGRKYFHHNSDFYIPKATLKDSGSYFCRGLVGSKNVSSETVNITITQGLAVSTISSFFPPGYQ

The target in one experiment is T4, FcγRIa extracellular domain, His tag (human, UniProt P12314 16-292).
T4 construct: whole entry named; also called FcgRIa
T4 sequence (P12314 16-292): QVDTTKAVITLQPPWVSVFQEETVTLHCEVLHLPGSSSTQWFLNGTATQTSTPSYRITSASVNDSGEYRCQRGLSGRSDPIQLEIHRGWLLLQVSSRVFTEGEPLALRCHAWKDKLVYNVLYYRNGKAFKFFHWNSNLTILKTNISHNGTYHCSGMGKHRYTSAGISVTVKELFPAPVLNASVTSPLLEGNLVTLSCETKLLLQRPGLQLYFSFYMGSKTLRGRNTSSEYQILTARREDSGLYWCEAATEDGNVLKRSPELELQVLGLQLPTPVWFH
Kind of experiment: SPR, KD ratio. For orientation: SPR reads the build-up and loss of mass on a sensor chip optically.
As to B1, the “Relative FcgRIa-binding Activity” value was 0.0041 fold of IL6R-G1d/IL6R-L.
On the same count and under the same terms, the figure for B2 is 0.0017 fold of IL6R-G1d/IL6R-L; for B3 it is 0.0001 fold of IL6R-G1d/IL6R-L; for B4 it is 0.0006 fold of IL6R-G1d/IL6R-L.
As for B5, the “Relative FcgRIa-binding Activity” value is 0.0004 fold of IL6R-G1d/IL6R-L.
Still for that read-out and setting: under B6 stands 0.0446 fold of IL6R-G1d/IL6R-L; under B7, 0.033 fold of IL6R-G1d/IL6R-L.
On the same count and under the same terms, under B8 stands 0.0005 fold of IL6R-G1d/IL6R-L.

The target of another experiment is T1, FcγRIIa R type extracellular domain, …. Kind of experiment: SPR, KD ratio.
B1: the “Relative FcgRIIaR-binding Activity” value was 0.015 fold of IL6R-G1d/IL6R-L.
As for B2, the “Relative FcgRIIaR-binding Activity” value is 0.019 fold of IL6R-G1d/IL6R-L.
Turning to B3, the “Relative FcgRIIaR-binding Activity” value is 0.009 fold of IL6R-G1d/IL6R-L.
In the case of B4, the “Relative FcgRIIaR-binding Activity” value was 0.022 fold of IL6R-G1d/IL6R-L.
The same measure, in the same setting: under B5 stands 0.017 fold of IL6R-G1d/IL6R-L; under B6, 0.025 fold of IL6R-G1d/IL6R-L.
Still for that read-out and setting: the figure for B7 is 0.03 fold of IL6R-G1d/IL6R-L; for B8 it is 0.015 fold of IL6R-G1d/IL6R-L.

Another experiment has as its target T5, FcγRIIIa V type extracellular domain, His tag (human, UniProt P08637 17-208).
T5 construct: extracellular domain; also called FcgRIIIaV
Kind of experiment: SPR, KD ratio.
As for B1, the “Relative FcgRIIIaV-binding Activity” value was 0.005 fold of IL6R-G1d/IL6R-L.
On the same count and under the same terms, the figure for B2 is 0.009 fold of IL6R-G1d/IL6R-L; for B3 it is 0.004 fold of IL6R-G1d/IL6R-L; for B4 it is 0.006 fold of IL6R-G1d/IL6R-L.
On the same count and under the same terms, the figure for B5 is 0.007 fold of IL6R-G1d/IL6R-L; for B6 it is 0.011 fold of IL6R-G1d/IL6R-L; for B7 it is 0.012 fold of IL6R-G1d/IL6R-L.
The same measure, in the same setting: under B8 stands 0.006 fold of IL6R-G1d/IL6R-L.

A further experiment deals with T2, FcγRIIb extracellular domain, His tag. As to the kind of experiment: SPR, KD ratio.
In the case of B1, the “Relative FcgRIIb-binding Activity” value was 0.807 fold of IL6R-G1d/IL6R-L.
Same read-out and setting: under B2 stands 1.25 fold of IL6R-G1d/IL6R-L; under B3, 1.09 fold of IL6R-G1d/IL6R-L.
On the same count and under the same terms, the figure for B4 is 1.89 fold of IL6R-G1d/IL6R-L.
Same read-out and setting: under B5 stands 1.19 fold of IL6R-G1d/IL6R-L; under B6, 0.972 fold of IL6R-G1d/IL6R-L; under B7, 1.28 fold of IL6R-G1d/IL6R-L.
On to B8, for which the “Relative FcgRIIb-binding Activity” value is 1.17 fold of IL6R-G1d/IL6R-L.

The target in the next experiment is T3, FcγRIIa H type extracellular domain, …. As to the kind of experiment: SPR, KD ratio.
With B1, the “Relative FcgRIIaH-binding Activity” value was 0.006 fold of IL6R-G1d/IL6R-L.
Regarding B2, the “Relative FcgRIIaH-binding Activity” value is 0.016 fold of IL6R-G1d/IL6R-L.
Still for that read-out and setting: under B3 stands 0.006 fold of IL6R-G1d/IL6R-L.
B4: the “Relative FcgRIIaH-binding Activity” value was 0.008 fold of IL6R-G1d/IL6R-L.
As for B5, the “Relative FcgRIIaH-binding Activity” value is 0.007 fold of IL6R-G1d/IL6R-L.
B6: the “Relative FcgRIIaH-binding Activity” value was 0.009 fold of IL6R-G1d/IL6R-L.
On the same count and under the same terms, under B7 stands 0.01 fold of IL6R-G1d/IL6R-L; under B8, 0.005 fold of IL6R-G1d/IL6R-L.

The target in the next experiment is T1, FcγRIIa R type extracellular domain, …. As to the kind of experiment: SPR, bound amount per captured antibody.
Regarding B1, the “Relative FcgRIIaR-binding Activity” value was 9.1 % of IL6R-G1d/IL6R-L.
The same measure, in the same setting: under B2 stands 12 % of IL6R-G1d/IL6R-L; under B3, 6.3 % of IL6R-G1d/IL6R-L; under B4, 13.7 % of IL6R-G1d/IL6R-L.
For B5, the “Relative FcgRIIaR-binding Activity” value was 10.7 % of IL6R-G1d/IL6R-L.
Still for that read-out and setting: under B6 stands 14.7 % of IL6R-G1d/IL6R-L.
Still for that read-out and setting: under B7 stands 17.5 % of IL6R-G1d/IL6R-L; under B8, 10 % of IL6R-G1d/IL6R-L.

A further experiment has as its target T2, FcγRIIb extracellular domain, His tag. Kind of experiment: SPR, bound amount per captured antibody.
As for B1, the “Relative FcgRIIb-binding Activity” value was 87 % of IL6R-G1d/IL6R-L.
On the same count and under the same terms, the figure for B2 is 123 % of IL6R-G1d/IL6R-L.
B3: the “Relative FcgRIIb-binding Activity” value is 104 % of IL6R-G1d/IL6R-L.
Same read-out and setting: under B4 stands 127 % of IL6R-G1d/IL6R-L.
The same measure, in the same setting: the figure for B5 is 104 % of IL6R-G1d/IL6R-L.
On the same count and under the same terms, under B6 stands 100 % of IL6R-G1d/IL6R-L; under B7, 109 % of IL6R-G1d/IL6R-L; under B8, 127 % of IL6R-G1d/IL6R-L.

Source of the values: patent publication US20220411483A1 (Chugai, published 2022).
